Laboratory results taken from the RNAGym collection of RNA variant scans (doi:10.1101/gr.219683.116).

B1: mRNA-splicing (parent)
chain: AGUUGCUGCUGGGAGCUCCAGCACAGUGAAAUGGACAGAAGGGCAGAGCAA

Variants of: B1
Experiment: exon inclusion enrichment index; higher = more inclusion; WT1 exon 5 minigene, HEK293

Variant	exon inclusion enrichment index
G5C C6A U7C G8A U10A A23C C24A	0.209
G5C C6A U7C G8A U10A A23C C24G	0.664
G5C C6A U7C G8A U10A A23C C24U	0.0196
G5C C6A U7C G8A U10A A23G	0.287
G5C C6A U7C G8A U10A A23G C24A	0.48
G5C C6A U7C G8A U10A A23G C24G	0.559
G5C C6A U7C G8A U10A A23G C24U	0.0154
G5C C6A U7C G8A U10A A23U	0.0425
G5C C6A U7C G8A U10A A23U C24A	0.0357
G5C C6A U7C G8A U10A A23U C24G	0.159
G5C C6A U7C G8A U10A A23U C24U	0.00309
G5C C6A U7C G8A U10A A25C	0.77
G5C C6A U7C G8A U10A A25C G26A	0.352
G5C C6A U7C G8A U10A A25C G26C	0.037
G5C C6A U7C G8A U10A A25C G26U	0.241
G5C C6A U7C G8A U10A A25G	0.601
G5C C6A U7C G8A U10A A25G G26A	0.663
G5C C6A U7C G8A U10A A25G G26C	0.647
G5C C6A U7C G8A U10A A25G G26U	0.306
G5C C6A U7C G8A U10A A25U	0.205
G5C C6A U7C G8A U10A A25U G26A	0.172
G5C C6A U7C G8A U10A A25U G26C	0.181
G5C C6A U7C G8A U10A A25U G26U	0.111
G5C C6A U7C G8A U10A A29C	0.0911

Variant	exon inclusion enrichment index
G5C C6A U7C G8A U10A A29C A30C	0.217
G5C C6A U7C G8A U10A A29C A30G	0.291
G5C C6A U7C G8A U10A A29C A30U	0.0384
G5C C6A U7C G8A U10A A29G	0.202
G5C C6A U7C G8A U10A A29G A30C	0.0319
G5C C6A U7C G8A U10A A29G A30G	0.0879
G5C C6A U7C G8A U10A A29G A30U	0.0104
G5C C6A U7C G8A U10A A29U	0.035
G5C C6A U7C G8A U10A A29U A30C	0.0766
G5C C6A U7C G8A U10A A29U A30G	0.125
G5C C6A U7C G8A U10A A29U A30U	0.0185
G5C C6A U7C G8A U10A A30C	0.0836
G5C C6A U7C G8A U10A A30C A31C	0.314
G5C C6A U7C G8A U10A A30C A31G	0.372
G5C C6A U7C G8A U10A A30C A31U	0.168
G5C C6A U7C G8A U10A A30G	0.0971
G5C C6A U7C G8A U10A A30G A31C	0.00678
G5C C6A U7C G8A U10A A30G A31G	0.0207
G5C C6A U7C G8A U10A A30G A31U	0.018
G5C C6A U7C G8A U10A A30U	0.0402
G5C C6A U7C G8A U10A A30U A31C	0.143
G5C C6A U7C G8A U10A A30U A31G	0.105
G5C C6A U7C G8A U10A A30U A31U	0.0758
G5C C6A U7C G8A U10A A31C	0.155

Variant	exon inclusion enrichment index
G5C C6A U7C G8A U10A A31C U32A	0.0301
G5C C6A U7C G8A U10A A31C U32C	0.385
G5C C6A U7C G8A U10A A31C U32G	0.221
G5C C6A U7C G8A U10A A31G	0.141
G5C C6A U7C G8A U10A A31G U32A	0.854
G5C C6A U7C G8A U10A A31G U32C	0.646
G5C C6A U7C G8A U10A A31G U32G	0.0429
G5C C6A U7C G8A U10A A31U	0.094
G5C C6A U7C G8A U10A A31U U32A	0.00816
G5C C6A U7C G8A U10A A31U U32C	0.293
G5C C6A U7C G8A U10A A31U U32G	0.0217
G5C C6A U7C G8A U10A A35C	0.0232
G5C C6A U7C G8A U10A A35C C36A	0.0377
G5C C6A U7C G8A U10A A35C C36G	0.107
G5C C6A U7C G8A U10A A35C C36U	0.0111
G5C C6A U7C G8A U10A A35G	0.0247
G5C C6A U7C G8A U10A A35G C36A	0.0625
G5C C6A U7C G8A U10A A35G C36G	0.00494
G5C C6A U7C G8A U10A A35G C36U	0.00147
G5C C6A U7C G8A U10A A35U	0.00802
G5C C6A U7C G8A U10A A35U C36A	0.00105
G5C C6A U7C G8A U10A A35U C36G	0.00777
G5C C6A U7C G8A U10A A35U C36U	0.00092
G5C C6A U7C G8A U10A A37C	0.426

Variant	exon inclusion enrichment index
G5C C6A U7C G8A U10A A37C G38A	0.149
G5C C6A U7C G8A U10A A37C G38C	0.176
G5C C6A U7C G8A U10A A37C G38U	0.0457
G5C C6A U7C G8A U10A A37G	0.237
G5C C6A U7C G8A U10A A37G G38A	0.104
G5C C6A U7C G8A U10A A37G G38C	0.228
G5C C6A U7C G8A U10A A37G G38U	0.0217
G5C C6A U7C G8A U10A A37U	0.0984
G5C C6A U7C G8A U10A A37U G38A	0.0332
G5C C6A U7C G8A U10A A37U G38C	0.0672
G5C C6A U7C G8A U10A A37U G38U	0.0186
G5C C6A U7C G8A U10A A39C	0.0137
G5C C6A U7C G8A U10A A39C A40C	0.334
G5C C6A U7C G8A U10A A39C A40G	0.142
G5C C6A U7C G8A U10A A39C A40U	0.0879
G5C C6A U7C G8A U10A A39G	0.0326
G5C C6A U7C G8A U10A A39G A40C	0.119
G5C C6A U7C G8A U10A A39G A40G	0.0106
G5C C6A U7C G8A U10A A39G A40U	0.0129
G5C C6A U7C G8A U10A A39U	0.00393
G5C C6A U7C G8A U10A A39U A40C	0.195
G5C C6A U7C G8A U10A A39U A40G	0.0214
G5C C6A U7C G8A U10A A39U A40U	0.036
G5C C6A U7C G8A U10A A40C	0.355

Variant	exon inclusion enrichment index
G5C C6A U7C G8A U10A A40C G41A	0.0281
G5C C6A U7C G8A U10A A40C G41C	0.71
G5C C6A U7C G8A U10A A40C G41U	0.0519
G5C C6A U7C G8A U10A A40G	0.0695
G5C C6A U7C G8A U10A A40G G41A	0.0264
G5C C6A U7C G8A U10A A40G G41C	0.666
G5C C6A U7C G8A U10A A40G G41U	0.0884
G5C C6A U7C G8A U10A A40U	0.0713
G5C C6A U7C G8A U10A A40U G41A	0.00421
G5C C6A U7C G8A U10A A40U G41C	0.451
G5C C6A U7C G8A U10A A40U G41U	0.0362
G5C C6A U7C G8A U10A A45C	0.18
G5C C6A U7C G8A U10A A45C G46A	0.0623
G5C C6A U7C G8A U10A A45C G46C	0.0869
G5C C6A U7C G8A U10A A45C G46U	0.0352
G5C C6A U7C G8A U10A A45G	0.276
G5C C6A U7C G8A U10A A45G G46A	0.559
G5C C6A U7C G8A U10A A45G G46C	0.26
G5C C6A U7C G8A U10A A45G G46U	0.0847
G5C C6A U7C G8A U10A A45U	0.211
G5C C6A U7C G8A U10A A45U G46A	0.0675
G5C C6A U7C G8A U10A A45U G46C	0.0541
G5C C6A U7C G8A U10A A45U G46U	0.0227
G5C C6A U7C G8A U10A A47C	0.232

Variant	exon inclusion enrichment index
G5C C6A U7C G8A U10A A47C G48A	0.0538
G5C C6A U7C G8A U10A A47C G48C	0.224
G5C C6A U7C G8A U10A A47C G48U	0.0993
G5C C6A U7C G8A U10A A47G	0.0221
G5C C6A U7C G8A U10A A47G G48A	0.0475
G5C C6A U7C G8A U10A A47G G48C	0.0266
G5C C6A U7C G8A U10A A47G G48U	0.00361
G5C C6A U7C G8A U10A A47U	0.108
G5C C6A U7C G8A U10A A47U G48A	0.071
G5C C6A U7C G8A U10A A47U G48C	0.0757
G5C C6A U7C G8A U10A A47U G48U	0.111
G5C C6A U7C G8A U10A C16A	0.0973
G5C C6A U7C G8A U10A C16A U17A	0.05
G5C C6A U7C G8A U10A C16A U17C	0.0679
G5C C6A U7C G8A U10A C16A U17G	0.0171
G5C C6A U7C G8A U10A C16G	0.043
G5C C6A U7C G8A U10A C16G U17A	0.181
G5C C6A U7C G8A U10A C16G U17C	0.0308
G5C C6A U7C G8A U10A C16G U17G	0.00731
G5C C6A U7C G8A U10A C16U	0.0868
G5C C6A U7C G8A U10A C16U U17A	0.048
G5C C6A U7C G8A U10A C16U U17C	0.0203
G5C C6A U7C G8A U10A C16U U17G	0.0279
G5C C6A U7C G8A U10A C18A	0.0467

Variant	exon inclusion enrichment index
G5C C6A U7C G8A U10A C18A C19A	0.0025
G5C C6A U7C G8A U10A C18A C19G	0.00323
G5C C6A U7C G8A U10A C18A C19U	0.00173
G5C C6A U7C G8A U10A C18G	0.097
G5C C6A U7C G8A U10A C18G C19A	0.143
G5C C6A U7C G8A U10A C18G C19G	0.186
G5C C6A U7C G8A U10A C18G C19U	0.00896
G5C C6A U7C G8A U10A C18U	0.054
G5C C6A U7C G8A U10A C18U C19A	0.00114
G5C C6A U7C G8A U10A C18U C19G	0.0165
G5C C6A U7C G8A U10A C18U C19U	0.00236
G5C C6A U7C G8A U10A C19A	0.0348
G5C C6A U7C G8A U10A C19A A20C	0.0294
G5C C6A U7C G8A U10A C19A A20G	0.00417
G5C C6A U7C G8A U10A C19A A20U	0.00249
G5C C6A U7C G8A U10A C19G	0.078
G5C C6A U7C G8A U10A C19G A20C	0.111
G5C C6A U7C G8A U10A C19G A20G	0.0527
G5C C6A U7C G8A U10A C19G A20U	0.0711
G5C C6A U7C G8A U10A C19U	0.0124
G5C C6A U7C G8A U10A C19U A20C	0.0561
G5C C6A U7C G8A U10A C19U A20G	0.0251
G5C C6A U7C G8A U10A C19U A20U	0.0111
